Laboratory results: article PMC10866649

Assays:
[1] = target: Human neonatal Fc receptor (hFcRn), P55899; assay: SPR; biolayer interferometry (citing paragraph); conditions: chain shown with the change
[2] = target: T1, Human dendritic cell–specific ICAM-3–grabbing non-integrin (DC-SIGN; CD209), Q9NNX6; assay: flow cytometry on cells (hDC-SIGN+/SIGN-R1-/- murine BMDMs); conditions: type I FcγRs blocked; PBS control = 1; read off a plot
T1 chain: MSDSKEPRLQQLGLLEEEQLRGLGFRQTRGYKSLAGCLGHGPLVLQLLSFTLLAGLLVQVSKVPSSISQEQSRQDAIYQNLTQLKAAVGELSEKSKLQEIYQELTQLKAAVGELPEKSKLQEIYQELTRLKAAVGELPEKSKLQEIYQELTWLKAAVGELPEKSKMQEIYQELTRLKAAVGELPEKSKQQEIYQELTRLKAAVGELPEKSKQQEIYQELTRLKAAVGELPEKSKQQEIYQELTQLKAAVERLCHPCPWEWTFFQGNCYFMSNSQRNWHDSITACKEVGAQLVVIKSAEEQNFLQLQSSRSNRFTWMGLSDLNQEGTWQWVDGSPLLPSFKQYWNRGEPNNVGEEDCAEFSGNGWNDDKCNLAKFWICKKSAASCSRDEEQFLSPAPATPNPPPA

Kd [1]: 5.2 nM
response (fold change in MFI (normalized to PBS)) [2]: 1.4
B1: Wild-type human IgG1 Fc (Fc^WT) M252Y; S254T; T256E; H433K; N434F (protein)
chain: DKTHTCPPCPAPELLGGPSVFLFPPKPKDTLYITREPEVTCVVVDVSHEDPEVKFNWYVDGVEVHNAKTKPREEQYNSTYRVVSVLTVLHQDWLNGKEYKCKVSNKALPAPIEKTISKAKGQPREPQVYTLPPSRDELTKNQVSLTCLVKGFYPSDIAVEWESNGQPENNYKTTPPVLDSDGSFFLYSKLTVDKSRWQQGNVFSCSVMHEALKFHYTQKSLSLSPGK
